Measured values taken from paper PMC10352136 (2023).

Experiments:
[1] = target: T1, SNX1-SAH^3A:SNX5-SAH^3A heterodimer (human, UniProt Q13596 1-522; Q9Y5X3 1-404); test: ITC; representative single experiment
[2] = target: T2, SNX1-BT*:SNX5-BT* heterodimer (human, UniProt Q13596 1-522; Q9Y5X3 1-404); test: ITC; representative single experiment
[3] = target: T1, SNX1-SAH^3A:SNX5-SAH^3A heterodimer; test: ITC
[4] = target: T2, SNX1-BT*:SNX5-BT* heterodimer; test: ITC

T1 sequence (Q13596 whole entry, chain 1 of 2): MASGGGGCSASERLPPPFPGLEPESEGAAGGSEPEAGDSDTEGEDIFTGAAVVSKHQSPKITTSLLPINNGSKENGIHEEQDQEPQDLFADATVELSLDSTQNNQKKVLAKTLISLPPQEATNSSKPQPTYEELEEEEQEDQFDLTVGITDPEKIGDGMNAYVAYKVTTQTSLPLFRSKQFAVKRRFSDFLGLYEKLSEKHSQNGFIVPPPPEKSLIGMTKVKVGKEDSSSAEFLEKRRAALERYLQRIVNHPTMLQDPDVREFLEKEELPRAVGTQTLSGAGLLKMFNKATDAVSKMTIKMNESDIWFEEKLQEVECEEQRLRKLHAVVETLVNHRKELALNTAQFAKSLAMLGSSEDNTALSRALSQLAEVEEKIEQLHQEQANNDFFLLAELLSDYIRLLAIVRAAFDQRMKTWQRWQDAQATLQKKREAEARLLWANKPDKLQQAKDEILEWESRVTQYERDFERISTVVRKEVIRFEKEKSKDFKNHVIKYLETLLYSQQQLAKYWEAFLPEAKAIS
T1 sequence (Q9Y5X3 whole entry, chain 2 of 2): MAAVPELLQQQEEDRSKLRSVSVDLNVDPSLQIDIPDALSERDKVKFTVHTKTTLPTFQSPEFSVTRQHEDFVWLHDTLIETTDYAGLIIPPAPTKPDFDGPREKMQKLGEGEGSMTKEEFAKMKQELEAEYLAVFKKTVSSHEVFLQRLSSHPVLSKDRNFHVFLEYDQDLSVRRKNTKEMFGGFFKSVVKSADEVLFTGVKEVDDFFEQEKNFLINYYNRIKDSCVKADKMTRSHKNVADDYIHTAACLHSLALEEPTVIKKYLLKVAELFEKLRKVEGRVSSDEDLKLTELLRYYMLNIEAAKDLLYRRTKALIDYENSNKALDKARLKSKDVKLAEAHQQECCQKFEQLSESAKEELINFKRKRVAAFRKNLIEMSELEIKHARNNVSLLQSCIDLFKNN
T2 sequence (Q13596 whole entry, chain 1 of 2): as the sequence (Q13596 whole entry, chain 1 of 2) above
T2 sequence (Q9Y5X3 whole entry, chain 2 of 2): as the sequence (Q9Y5X3 whole entry, chain 2 of 2) above

Kd [1]: 4.64 µM
Kd [2]: 9.96 µM
Kd [3]: 5.06 µM
Kd [4]: 10.4 µM
Binder: SNVSYKYSKVNKEEETDENETEWLMEEIQ
